Assay results: IntAct's records for PubMed 22139357

B1: Protein phosphatase 2C homolog 4 (Schizosaccharomyces pombe (strain ATCC 38366 / 972)), O14156 (parent)
chain: MSIRFLKRLRAPLYIQNAYCSKNYFYRSFIQYYSPSNGPYLKISMNKAPQSLGLCTARGDSPTNQDRMAYGYLNNLKDTTNRDSPFFYGLFDGHGGTECSEFLSTNLGKIIENQDLNDTEKILKEVHSVGGYMAGLKPPFSLRTVLQSRDEDLLWRARLYYSFLQADMDYLTNYARPSPDSAVPGAVGTVAIITSKNNLSYWESDSYIIHLAHVGDTRALLCDSRTGRAHRLTFQHHPADVEEARRLRRYNMGFSRDSFGQKRFAWVANTRSFGDGYKLKKLGVVAEPQLTSIHSLRDDWSFLTLLSDGITDVVSDDEVVDIIKLSESPQDAANNIIRYAQNVGAVDDITCLVVRLPGWKKRTINDFTKNLRLEKSAYHPRRS
partner: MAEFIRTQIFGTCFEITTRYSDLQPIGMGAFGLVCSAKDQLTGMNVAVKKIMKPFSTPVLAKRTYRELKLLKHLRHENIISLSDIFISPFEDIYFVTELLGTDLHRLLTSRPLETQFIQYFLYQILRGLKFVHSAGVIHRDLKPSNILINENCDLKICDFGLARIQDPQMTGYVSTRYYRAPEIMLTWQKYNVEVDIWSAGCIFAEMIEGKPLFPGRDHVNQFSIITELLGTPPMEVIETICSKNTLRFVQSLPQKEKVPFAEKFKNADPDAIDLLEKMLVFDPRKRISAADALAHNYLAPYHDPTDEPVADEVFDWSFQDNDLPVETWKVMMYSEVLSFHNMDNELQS

Legend:
Conditions in all cases: with hog1_schpo sty1, Q09892
hog1_schpo sty1, Q09892 [1] = variants of: B1
hog1_schpo sty1, Q09892 [2] = variants of: B1; remark: listed apart in the source
hog1_schpo sty1, Q09892 [3] = variants of: B1; remark: listed apart in the source

effect of a mutation on the interaction (hog1_schpo sty1, Q09892 [1]) | effect of a mutation on the interaction (hog1_schpo sty1, Q09892 [2]) | effect of a mutation on the interaction (hog1_schpo sty1, Q09892 [3]) | Variant
disrupting interaction | decreasing interaction | – | MSIRFLKRLAAPLYIQNAYCSKNYFYRSFIQYYSPSNGPYLKISMNKAPQSLGLCTARGDSPTNQDRMAYGYLNNLKDTTNRDSPFFYGLFDGHGGTECSEFLSTNLGKIIENQDLNDTEKILKEVHSVGGYMAGLKPPFSLRTVLQSRDEDLLWRARLYYSFLQADMDYLTNYARPSPDSAVPGAVGTVAIITSKNNLSYWESDSYIIHLAHVGDTRALLCDSRTGRAHRLTFQHHPADVEEARRLRRYNMGFSRDSFGQKRFAWVANTRSFGDGYKLKKLGVVAEPQLTSIHSLRDDWSFLTLLSDGITDVVSDDEVVDIIKLSESPQDAANNIIRYAQNVGAVDDITCLVVRLPGWKKRTINDFTKNLRLEKSAYHPRRS [R10A]
disrupting interaction | decreasing interaction | – | MSIRFLKALRAPLYIQNAYCSKNYFYRSFIQYYSPSNGPYLKISMNKAPQSLGLCTARGDSPTNQDRMAYGYLNNLKDTTNRDSPFFYGLFDGHGGTECSEFLSTNLGKIIENQDLNDTEKILKEVHSVGGYMAGLKPPFSLRTVLQSRDEDLLWRARLYYSFLQADMDYLTNYARPSPDSAVPGAVGTVAIITSKNNLSYWESDSYIIHLAHVGDTRALLCDSRTGRAHRLTFQHHPADVEEARRLRRYNMGFSRDSFGQKRFAWVANTRSFGDGYKLKKLGVVAEPQLTSIHSLRDDWSFLTLLSDGITDVVSDDEVVDIIKLSESPQDAANNIIRYAQNVGAVDDITCLVVRLPGWKKRTINDFTKNLRLEKSAYHPRRS [R8A]
disrupting interaction | – | decreasing interaction | MSIRFLKRLRAPLYIQNAYCSKNYFYASFIQYYSPSNGPYLKISMNKAPQSLGLCTARGDSPTNQDRMAYGYLNNLKDTTNRDSPFFYGLFDGHGGTECSEFLSTNLGKIIENQDLNDTEKILKEVHSVGGYMAGLKPPFSLRTVLQSRDEDLLWRARLYYSFLQADMDYLTNYARPSPDSAVPGAVGTVAIITSKNNLSYWESDSYIIHLAHVGDTRALLCDSRTGRAHRLTFQHHPADVEEARRLRRYNMGFSRDSFGQKRFAWVANTRSFGDGYKLKKLGVVAEPQLTSIHSLRDDWSFLTLLSDGITDVVSDDEVVDIIKLSESPQDAANNIIRYAQNVGAVDDITCLVVRLPGWKKRTINDFTKNLRLEKSAYHPRRS [R27A]
